Test results taken from PMC9482650, “Quantitative fragmentomics allow affinity mapping of interactomes” (Nature Communications, 2022).

What was measured:
Assay in all cases: holdup assay
Set-up in all cases: key: below the threshold = too weak to quantify, mostly under pKd 3.1 to 4
DLG3_2, Q92796 = target: T1, DLG3_2, Q92796
T1 sequence (Q92796 221-321, limits assumed, looked up): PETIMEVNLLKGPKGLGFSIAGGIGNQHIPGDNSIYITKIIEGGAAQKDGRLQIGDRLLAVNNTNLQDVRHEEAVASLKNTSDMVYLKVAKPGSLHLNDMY

GRIP2_3, Q9C0E4 = target: GRIP2_3, Q9C0E4
TJP1_2, Q07157 = target: TJP1_2, Q07157
SIPA1L2, Q9P2F8 = target: T2, SIPA1L2, Q9P2F8
T2 sequence (Q9P2F8 945-1036, limits assumed, looked up): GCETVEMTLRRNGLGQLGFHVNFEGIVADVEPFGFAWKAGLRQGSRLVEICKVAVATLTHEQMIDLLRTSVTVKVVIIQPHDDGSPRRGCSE

LNX2_2, Q8N448 = target: T3, LNX2_2, Q8N448
T3 sequence (Q8N448 334-432, limits assumed, looked up): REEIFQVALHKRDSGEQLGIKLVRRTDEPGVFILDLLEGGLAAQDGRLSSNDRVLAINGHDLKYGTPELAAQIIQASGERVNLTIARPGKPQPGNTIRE

GRID2IP_1, A4D2P6 = target: GRID2IP_1, A4D2P6
LIN7C, Q9NUP9 = target: T4, LIN7C, Q9NUP9
T4 sequence (Q9NUP9 88-185, limits assumed, looked up): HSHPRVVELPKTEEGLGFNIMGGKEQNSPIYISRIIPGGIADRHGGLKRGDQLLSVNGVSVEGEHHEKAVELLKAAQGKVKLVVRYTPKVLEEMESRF

GORASP2, Q9H8Y8 = target: GORASP2, Q9H8Y8
MAGI3_2, Q5TCQ9 = target: MAGI3_2, Q5TCQ9
AHNAK1, Q09666 = target: AHNAK1, Q09666
Inadl_2, Q8NI35 = target: Inadl_2, Q8NI35
MPDZ_5, O75970 = target: T5, MPDZ_5, O75970
T5 sequence (O75970 695-796, limits assumed, looked up): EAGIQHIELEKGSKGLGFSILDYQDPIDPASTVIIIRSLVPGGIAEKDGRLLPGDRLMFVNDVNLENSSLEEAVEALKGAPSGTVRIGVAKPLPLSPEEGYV

DFNB31_3, Q9P202 = target: T6, DFNB31_3, Q9P202
T6 sequence (Q9P202 811-907, limits assumed, looked up): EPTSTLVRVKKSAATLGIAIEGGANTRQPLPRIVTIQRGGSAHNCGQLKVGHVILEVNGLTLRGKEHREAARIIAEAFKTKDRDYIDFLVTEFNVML

SHANK1, Q9Y566 = target: T7, SHANK1, Q9Y566
T7 sequence (Q9Y566 658-767, limits assumed, looked up): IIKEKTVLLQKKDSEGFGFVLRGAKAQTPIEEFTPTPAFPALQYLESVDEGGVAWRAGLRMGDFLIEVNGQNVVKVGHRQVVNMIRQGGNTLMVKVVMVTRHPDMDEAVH

GORASP1, Q9BQQ3 = target: GORASP1, Q9BQQ3
SNTB1, Q13884 = target: T8, SNTB1, Q13884
T8 sequence (Q13884 107-205, limits assumed, looked up): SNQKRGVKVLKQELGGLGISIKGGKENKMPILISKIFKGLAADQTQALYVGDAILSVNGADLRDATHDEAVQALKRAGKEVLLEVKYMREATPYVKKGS

FRMPD4, Q14CM0 = target: FRMPD4, Q14CM0
FRMPD2_3, Q68DX3 = target: FRMPD2_3, Q68DX3
PICK1, Q9NRD5 = target: PICK1, Q9NRD5
NHERF3_4, Q5T2W1 = target: T9, NHERF3_4, Q5T2W1
T9 sequence (Q5T2W1 373-468, limits assumed, looked up): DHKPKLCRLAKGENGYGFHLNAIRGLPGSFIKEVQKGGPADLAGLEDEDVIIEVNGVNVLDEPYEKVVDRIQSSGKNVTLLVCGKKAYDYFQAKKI

SCRIB_2, Q14160 = target: SCRIB_2, Q14160
DVL3, Q92997 = target: T10, DVL3, Q92997
T10 sequence (Q92997 244-331, limits assumed, looked up): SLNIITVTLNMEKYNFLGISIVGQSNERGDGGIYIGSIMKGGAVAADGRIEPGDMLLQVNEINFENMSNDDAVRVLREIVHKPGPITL

GRIP1_5, Q9Y3R0 = target: T11, GRIP1_5, Q9Y3R0
T11 sequence (Q9Y3R0 568-668, limits assumed, looked up): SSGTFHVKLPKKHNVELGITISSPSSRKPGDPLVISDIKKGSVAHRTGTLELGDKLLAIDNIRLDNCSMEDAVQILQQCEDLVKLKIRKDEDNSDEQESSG

NHERF3_3, Q5T2W1 = target: T12, NHERF3_3, Q5T2W1
T12 sequence (Q5T2W1 238-333, limits assumed, looked up): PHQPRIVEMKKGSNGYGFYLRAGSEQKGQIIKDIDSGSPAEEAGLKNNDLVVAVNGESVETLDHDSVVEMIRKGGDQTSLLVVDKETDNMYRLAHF

LNX1_2, Q8TBB1 = target: LNX1_2, Q8TBB1
[1] = plain residues with an end cap or a label only (N-terminal biotin on a linker: ado-ado)
[2] = plain residues with an end cap or a label only (N-terminal biotin on a linker: ahx)

Measured: pKd

Chain of LNX1_2, Q8TBB1 (Q8TBB1 371-470): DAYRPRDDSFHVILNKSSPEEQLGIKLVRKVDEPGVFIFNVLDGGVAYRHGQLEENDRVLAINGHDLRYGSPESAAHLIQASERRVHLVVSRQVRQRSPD
Chain of FRMPD4, Q14CM0 (Q14CM0 67-160): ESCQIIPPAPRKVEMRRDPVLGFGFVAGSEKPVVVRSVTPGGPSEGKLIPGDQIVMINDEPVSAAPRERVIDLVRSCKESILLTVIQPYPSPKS
Chain of GORASP1, Q9BQQ3 (Q9BQQ3 1-208): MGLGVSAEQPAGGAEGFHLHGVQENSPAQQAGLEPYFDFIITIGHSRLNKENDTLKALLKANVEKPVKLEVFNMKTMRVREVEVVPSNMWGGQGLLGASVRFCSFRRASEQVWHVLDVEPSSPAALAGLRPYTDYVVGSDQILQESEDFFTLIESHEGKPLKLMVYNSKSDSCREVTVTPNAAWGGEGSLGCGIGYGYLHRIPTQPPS
Chain of AHNAK1, Q09666 (Q09666 4-100): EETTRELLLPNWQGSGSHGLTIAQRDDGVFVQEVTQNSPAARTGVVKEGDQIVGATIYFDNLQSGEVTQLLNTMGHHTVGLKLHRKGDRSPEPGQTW
Chain of SCRIB_2, Q14160 (Q14160 857-960): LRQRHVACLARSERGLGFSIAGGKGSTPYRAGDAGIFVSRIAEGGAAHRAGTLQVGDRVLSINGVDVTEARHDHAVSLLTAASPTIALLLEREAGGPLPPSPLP
Chain of GRIP2_3, Q9C0E4 (Q9C0E4 238-339): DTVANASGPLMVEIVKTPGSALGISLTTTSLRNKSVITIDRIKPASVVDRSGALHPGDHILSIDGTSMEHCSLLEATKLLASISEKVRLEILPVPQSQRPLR
Chain of TJP1_2, Q07157 (Q07157 181-274): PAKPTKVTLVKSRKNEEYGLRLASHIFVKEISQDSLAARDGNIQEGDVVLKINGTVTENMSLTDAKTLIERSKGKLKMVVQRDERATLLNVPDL
Chain of PICK1, Q9NRD5 (Q9NRD5 17-115): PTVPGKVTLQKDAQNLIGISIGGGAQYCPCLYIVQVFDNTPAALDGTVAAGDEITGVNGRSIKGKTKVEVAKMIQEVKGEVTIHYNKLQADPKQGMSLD
Chain of MAGI3_2, Q5TCQ9 (Q5TCQ9 398-503): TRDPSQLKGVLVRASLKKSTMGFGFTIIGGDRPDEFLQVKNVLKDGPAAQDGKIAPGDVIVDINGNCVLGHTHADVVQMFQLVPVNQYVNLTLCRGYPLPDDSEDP
Chain of FRMPD2_3, Q68DX3 (Q68DX3 1073-1166): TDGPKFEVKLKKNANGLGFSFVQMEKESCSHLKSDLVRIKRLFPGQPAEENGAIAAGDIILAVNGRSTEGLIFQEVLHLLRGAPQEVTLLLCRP
Chain of Inadl_2, Q8NI35 (Q8NI35 238-335): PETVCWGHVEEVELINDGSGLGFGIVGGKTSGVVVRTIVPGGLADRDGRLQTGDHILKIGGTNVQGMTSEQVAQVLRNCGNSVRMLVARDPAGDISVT
Chain of GRID2IP_1, A4D2P6 (A4D2P6 1-87): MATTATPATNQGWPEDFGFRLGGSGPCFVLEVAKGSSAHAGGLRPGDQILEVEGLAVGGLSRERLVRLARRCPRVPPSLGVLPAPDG

TRKRSGEAAV [PFKM, P08237]
3.61: GORASP2, Q9H8Y8; [1]
3.53: LNX2_2, Q8N448; [1]
3.58: FRMPD4, Q14CM0; [1]
4.18: PICK1, Q9NRD5; [1]
4.48: MAGI3_2, Q5TCQ9; [1]
3.97: FRMPD2_3, Q68DX3; [1]
below the threshold: DLG3_2, Q92796; [1] | GRIP2_3, Q9C0E4; [1] | TJP1_2, Q07157; [1] | SIPA1L2, Q9P2F8; [1] | GRID2IP_1, A4D2P6; [1] | LIN7C, Q9NUP9; [1] | AHNAK1, Q09666; [1] | Inadl_2, Q8NI35; [1] | MPDZ_5, O75970; [1] | DFNB31_3, Q9P202; [1] | SHANK1, Q9Y566; [1] | GORASP1, Q9BQQ3; [1] | SNTB1, Q13884; [1] | NHERF3_4, Q5T2W1; [1] | SCRIB_2, Q14160; [1] | DVL3, Q92997; [1] | GRIP1_5, Q9Y3R0; [1] | NHERF3_3, Q5T2W1; [1] | LNX1_2, Q8TBB1; [1]

SLNANEVEWF [RNF130, Q86XS8]
3.82: SHANK1, Q9Y566; [1]
3.96: LIN7C, Q9NUP9; [1]
3.5: FRMPD4, Q14CM0; [1]
4.16: DFNB31_3, Q9P202; [1]
3.7: LNX2_2, Q8N448; [1]
4.48: DVL3, Q92997; [1]
4.22: DLG3_2, Q92796; [1]
4.2: TJP1_2, Q07157; [1]
below the threshold: GRIP2_3, Q9C0E4; [1] | GRID2IP_1, A4D2P6; [1] | MAGI3_2, Q5TCQ9; [1] | AHNAK1, Q09666; [1] | MPDZ_5, O75970; [1] | SNTB1, Q13884; [1] | PICK1, Q9NRD5; [1] | NHERF3_4, Q5T2W1; [1] | GRIP1_5, Q9Y3R0; [1] | NHERF3_3, Q5T2W1; [1] | LNX1_2, Q8TBB1; [1]
3.57: SCRIB_2, Q14160; [1]
3.54: SIPA1L2, Q9P2F8; [1]
4.7: GORASP2, Q9H8Y8; [1]
4.08: GORASP1, Q9BQQ3; [1]
4.09: Inadl_2, Q8NI35; [1]
3.49: FRMPD2_3, Q68DX3; [1]

EKQAKGDTEF [CACYBP, Q9HB71]
below the threshold: DLG3_2, Q92796; [2] | GRIP2_3, Q9C0E4; [2] | TJP1_2, Q07157; [2] | SIPA1L2, Q9P2F8; [2] | LNX2_2, Q8N448; [2] | GRID2IP_1, A4D2P6; [2] | LIN7C, Q9NUP9; [2] | GORASP2, Q9H8Y8; [2] | MAGI3_2, Q5TCQ9; [2] | AHNAK1, Q09666; [2] | Inadl_2, Q8NI35; [2] | MPDZ_5, O75970; [2] | DFNB31_3, Q9P202; [2] | SHANK1, Q9Y566; [2] | GORASP1, Q9BQQ3; [2] | SNTB1, Q13884; [2] | FRMPD2_3, Q68DX3; [2] | PICK1, Q9NRD5; [2] | NHERF3_4, Q5T2W1; [2] | SCRIB_2, Q14160; [2] | DVL3, Q92997; [2] | GRIP1_5, Q9Y3R0; [2] | NHERF3_3, Q5T2W1; [2] | LNX1_2, Q8TBB1; [2]
3.55: FRMPD4, Q14CM0; [2]

MHIQEKGFHV [EPHA6, Q9UF33]
4.18: PICK1, Q9NRD5; [1]
3.77: FRMPD4, Q14CM0; [1] | LNX1_2, Q8TBB1; [1]
4.07: DFNB31_3, Q9P202; [1]
4.09: LNX2_2, Q8N448; [1]
3.52: TJP1_2, Q07157; [1]
below the threshold: DLG3_2, Q92796; [1] | GRIP2_3, Q9C0E4; [1] | SIPA1L2, Q9P2F8; [1] | GRID2IP_1, A4D2P6; [1] | LIN7C, Q9NUP9; [1] | MAGI3_2, Q5TCQ9; [1] | AHNAK1, Q09666; [1] | Inadl_2, Q8NI35; [1] | MPDZ_5, O75970; [1] | SHANK1, Q9Y566; [1] | GORASP1, Q9BQQ3; [1] | SNTB1, Q13884; [1] | FRMPD2_3, Q68DX3; [1] | NHERF3_4, Q5T2W1; [1] | SCRIB_2, Q14160; [1] | DVL3, Q92997; [1] | GRIP1_5, Q9Y3R0; [1] | NHERF3_3, Q5T2W1; [1]
3.62: GORASP2, Q9H8Y8; [1]
